Earlier results as cited in PMC10770464.

What was measured:
[1] = molecular target: High mobility group box-1 (Homo sapiens) (UniProt P09429)
[2] = molecular target: Hepatocyte growth factor (Homo sapiens) (UniProt P14210); test: ELISA
[3] = molecular target: Tissue plasminogen activator (Homo sapiens) (UniProt P00750); test: ELISA
[4] = molecular target: Plasminogen (Homo sapiens) (UniProt P00747)
[5] = molecular target: Plasminogen kringle 4 (Homo sapiens) (UniProt P00747)
[6] = molecular target: Apolipoprotein A (Homo sapiens) (UniProt P08519)
UniProt P08519, sequence (P08519 20-2040): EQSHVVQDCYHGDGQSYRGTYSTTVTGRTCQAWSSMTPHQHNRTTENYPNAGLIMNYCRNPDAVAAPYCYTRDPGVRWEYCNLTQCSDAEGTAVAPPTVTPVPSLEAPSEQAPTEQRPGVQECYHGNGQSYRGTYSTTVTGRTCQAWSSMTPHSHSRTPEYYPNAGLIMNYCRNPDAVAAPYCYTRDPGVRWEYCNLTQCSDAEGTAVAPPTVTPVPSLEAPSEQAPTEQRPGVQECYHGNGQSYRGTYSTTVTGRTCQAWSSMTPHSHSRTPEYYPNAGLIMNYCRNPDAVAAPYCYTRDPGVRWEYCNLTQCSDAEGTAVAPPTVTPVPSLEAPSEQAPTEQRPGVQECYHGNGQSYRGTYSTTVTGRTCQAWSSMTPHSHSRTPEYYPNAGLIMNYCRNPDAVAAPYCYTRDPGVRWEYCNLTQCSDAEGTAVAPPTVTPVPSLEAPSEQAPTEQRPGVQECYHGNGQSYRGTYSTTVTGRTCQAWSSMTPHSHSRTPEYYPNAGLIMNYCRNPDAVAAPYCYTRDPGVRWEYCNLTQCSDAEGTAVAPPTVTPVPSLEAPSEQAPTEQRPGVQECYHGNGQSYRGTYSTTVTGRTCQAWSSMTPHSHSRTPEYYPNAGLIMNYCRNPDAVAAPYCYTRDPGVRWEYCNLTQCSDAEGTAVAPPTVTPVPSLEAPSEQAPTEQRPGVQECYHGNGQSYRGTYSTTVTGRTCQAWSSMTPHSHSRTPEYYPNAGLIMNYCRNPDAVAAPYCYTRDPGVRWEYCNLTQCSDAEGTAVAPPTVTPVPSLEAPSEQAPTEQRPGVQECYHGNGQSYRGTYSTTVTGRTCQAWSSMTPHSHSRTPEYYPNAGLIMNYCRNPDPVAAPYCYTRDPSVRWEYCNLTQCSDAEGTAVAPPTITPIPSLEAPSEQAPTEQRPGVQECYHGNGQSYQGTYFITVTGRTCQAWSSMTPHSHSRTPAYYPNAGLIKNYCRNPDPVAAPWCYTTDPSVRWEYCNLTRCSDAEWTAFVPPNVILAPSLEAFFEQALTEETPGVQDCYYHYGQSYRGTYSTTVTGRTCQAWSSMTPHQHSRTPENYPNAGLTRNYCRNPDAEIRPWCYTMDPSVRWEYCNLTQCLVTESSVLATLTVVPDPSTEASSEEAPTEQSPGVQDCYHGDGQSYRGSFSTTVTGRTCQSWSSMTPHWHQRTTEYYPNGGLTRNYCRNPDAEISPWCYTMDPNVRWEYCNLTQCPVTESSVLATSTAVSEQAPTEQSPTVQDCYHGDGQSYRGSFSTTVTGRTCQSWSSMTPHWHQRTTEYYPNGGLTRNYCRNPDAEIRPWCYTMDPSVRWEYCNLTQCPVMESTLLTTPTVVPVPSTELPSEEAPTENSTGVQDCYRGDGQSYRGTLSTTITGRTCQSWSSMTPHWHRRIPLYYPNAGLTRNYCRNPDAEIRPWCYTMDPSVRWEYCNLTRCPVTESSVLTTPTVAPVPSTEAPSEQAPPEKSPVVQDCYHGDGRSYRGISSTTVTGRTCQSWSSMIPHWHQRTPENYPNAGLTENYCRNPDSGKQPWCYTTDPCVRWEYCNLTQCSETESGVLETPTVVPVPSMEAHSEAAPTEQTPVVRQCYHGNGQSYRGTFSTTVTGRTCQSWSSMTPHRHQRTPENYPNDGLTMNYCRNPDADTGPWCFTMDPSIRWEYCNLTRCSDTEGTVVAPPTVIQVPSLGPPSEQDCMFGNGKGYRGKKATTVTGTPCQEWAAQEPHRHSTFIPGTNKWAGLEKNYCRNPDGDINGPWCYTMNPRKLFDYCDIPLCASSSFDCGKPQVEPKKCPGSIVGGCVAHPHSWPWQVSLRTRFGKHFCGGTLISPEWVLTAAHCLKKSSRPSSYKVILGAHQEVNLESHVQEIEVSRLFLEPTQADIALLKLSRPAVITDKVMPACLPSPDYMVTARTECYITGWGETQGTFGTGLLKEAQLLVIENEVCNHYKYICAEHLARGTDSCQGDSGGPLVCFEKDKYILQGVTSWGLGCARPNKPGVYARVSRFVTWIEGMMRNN

UniProt P09429, sequence (P09429 whole entry): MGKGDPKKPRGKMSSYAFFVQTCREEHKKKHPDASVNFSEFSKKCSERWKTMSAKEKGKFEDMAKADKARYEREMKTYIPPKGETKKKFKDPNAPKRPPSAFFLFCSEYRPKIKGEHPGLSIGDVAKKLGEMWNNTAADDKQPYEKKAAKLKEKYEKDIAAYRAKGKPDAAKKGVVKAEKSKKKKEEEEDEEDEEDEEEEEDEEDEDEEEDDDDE
UniProt P00750, sequence (P00750 36-562): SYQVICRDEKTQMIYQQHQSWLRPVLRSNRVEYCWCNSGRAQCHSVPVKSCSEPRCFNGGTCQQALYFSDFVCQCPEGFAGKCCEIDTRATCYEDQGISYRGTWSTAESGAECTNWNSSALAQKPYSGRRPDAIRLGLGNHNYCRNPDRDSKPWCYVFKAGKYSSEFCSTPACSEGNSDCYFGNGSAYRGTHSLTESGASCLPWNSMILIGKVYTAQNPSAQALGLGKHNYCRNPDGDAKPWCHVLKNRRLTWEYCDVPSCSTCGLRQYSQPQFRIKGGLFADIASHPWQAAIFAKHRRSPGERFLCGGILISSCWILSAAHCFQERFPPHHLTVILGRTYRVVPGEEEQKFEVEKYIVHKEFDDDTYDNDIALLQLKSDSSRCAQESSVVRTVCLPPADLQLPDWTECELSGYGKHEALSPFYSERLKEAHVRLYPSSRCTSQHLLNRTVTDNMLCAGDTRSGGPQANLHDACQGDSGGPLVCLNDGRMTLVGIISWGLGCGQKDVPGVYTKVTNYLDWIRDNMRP
UniProt P14210, sequence (P14210 495-728): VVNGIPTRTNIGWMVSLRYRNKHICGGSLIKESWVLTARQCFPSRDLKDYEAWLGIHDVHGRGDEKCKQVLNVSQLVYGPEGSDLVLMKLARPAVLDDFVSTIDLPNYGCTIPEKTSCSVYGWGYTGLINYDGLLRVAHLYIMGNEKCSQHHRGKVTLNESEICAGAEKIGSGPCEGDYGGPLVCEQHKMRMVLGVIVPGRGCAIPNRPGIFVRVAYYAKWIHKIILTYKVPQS

Kd [1]: 2.05 nM
Kd [2]: 490 nM
Kd [3]: 290 nM
Kd [4]: 400 nM
Kd [5]: 25000 nM
Kd [6]: 13 nM
Substance: Tetranectin (from UniProt P05452)
